# B1: Protein RD3 (Homo sapiens), Q7Z3Z2 (parent)
# chain: MSLISWLRWNEAPSRLSTRSPAEMVLETLMMELTGQMREAERQQRERSNAVRKVCTGVDYSWLASTPRSTYDLSPIERLQLEDVCVKIHPSYCGPAILRFRQLLAEQEPEVQEVSQLFRSVLQEVLERMKQEEEAHKLTRQWSLRPRGSLATFKTRARISPFASDIRTISEDVERDTPPPLRSWSMPEFRAPKAD
# B2: NIF3-like protein 1 (Homo sapiens), Q9GZT8 (parent)
# chain: MLSSCVRPVPTTVRFVDSLICNSSRSFMDLKALLSSLNDFASLSFAESWDNVGLLVEPSPPHTVNTLFLTNDLTEEVMEEVLQKKADLILSYHPPIFRPMKRITWNTWKERLVIRALENRVGIYSPHTAYDAAPQGVNNWLAKGLGACTSRPIHPSKAPNYPTEGNHRVEFNVNYTQDLDKVMSAVKGIDGVSVTSFSARTGNEEQTRINLNCTQKALMQVVDFLSRNKQLYQKTEILSLEKPLLLHTGMGRLCTLDESVSLATMIDRIKRHLKLSHIRLALGVGRTLESQVKVVALCAGSGSSVLQGVEADLYLTGEMSHHDTLDAASQGINVILCEHSNTERGFLSDLRDMLDSHLENKINIILSETDRDPLQVV
# B3: E3 ubiquitin-protein ligase SH3RF2 (Homo sapiens), Q8TEC5 (parent)
# chain: MDDLTLLDLLECPVCFEKLDVTAKVLPCQHTFCKPCLQRVFKAHKELRCPECRTPVFSNIEALPANLLLVRLLDGVRSGQSSGRGGSFRRPGTMTLQDGRKSRTNPRRLQASPFRLVPNVRIHMDGVPRAKALCNYRGQNPGDLRFNKGDIILLRRQLDENWYQGEINGISGNFPASSVEVIKQLPQPPPLCRALYNFDLRGKDKSENQDCLTFLKDDIITVISRVDENWAEGKLGDKVGIFPILFVEPNLTARHLLEKNKGRQSSRTKNLSLVSSSSRGNTSTLRRGPGSRRKVPGQFSITTALNTLNRMVHSPSGRHMVEISTPVLISSSNPSVITQPMEKADVPSSCVGQVSTYHPAPVSPGHSTAVVSLPGSQQHLSANMFVALHSYSAHGPDELDLQKGEGVRVLGKCQDGWLRGVSLVTGRVGIFPNNYVIPIFRKTSSFPDSRSPGLYTTWTLSTSSVSSQGSISEGDPRQSRPFKSVFVPTAIVNPVRSTAGPGTLGQGSLRKGRSSMRKNGSLQRPLQSGIPTLVVGSLRRSPTMVLRPQQFQFYQPQGIPSSPSAVVVEMGSKPALTGEPALTCISRGSEAWIHSAASSLIMEDKEIPIKSEPLPKPPASAPPSILVKPENSRNGIEKQVKTVRFQNYSPPPTKHYTSHPTSGKPEQPATLKASQPEAASLGPEMTVLFAHRSGCHSGQQTDLRRKSALGKATTLVSTASGTQTVFPSK
# partner: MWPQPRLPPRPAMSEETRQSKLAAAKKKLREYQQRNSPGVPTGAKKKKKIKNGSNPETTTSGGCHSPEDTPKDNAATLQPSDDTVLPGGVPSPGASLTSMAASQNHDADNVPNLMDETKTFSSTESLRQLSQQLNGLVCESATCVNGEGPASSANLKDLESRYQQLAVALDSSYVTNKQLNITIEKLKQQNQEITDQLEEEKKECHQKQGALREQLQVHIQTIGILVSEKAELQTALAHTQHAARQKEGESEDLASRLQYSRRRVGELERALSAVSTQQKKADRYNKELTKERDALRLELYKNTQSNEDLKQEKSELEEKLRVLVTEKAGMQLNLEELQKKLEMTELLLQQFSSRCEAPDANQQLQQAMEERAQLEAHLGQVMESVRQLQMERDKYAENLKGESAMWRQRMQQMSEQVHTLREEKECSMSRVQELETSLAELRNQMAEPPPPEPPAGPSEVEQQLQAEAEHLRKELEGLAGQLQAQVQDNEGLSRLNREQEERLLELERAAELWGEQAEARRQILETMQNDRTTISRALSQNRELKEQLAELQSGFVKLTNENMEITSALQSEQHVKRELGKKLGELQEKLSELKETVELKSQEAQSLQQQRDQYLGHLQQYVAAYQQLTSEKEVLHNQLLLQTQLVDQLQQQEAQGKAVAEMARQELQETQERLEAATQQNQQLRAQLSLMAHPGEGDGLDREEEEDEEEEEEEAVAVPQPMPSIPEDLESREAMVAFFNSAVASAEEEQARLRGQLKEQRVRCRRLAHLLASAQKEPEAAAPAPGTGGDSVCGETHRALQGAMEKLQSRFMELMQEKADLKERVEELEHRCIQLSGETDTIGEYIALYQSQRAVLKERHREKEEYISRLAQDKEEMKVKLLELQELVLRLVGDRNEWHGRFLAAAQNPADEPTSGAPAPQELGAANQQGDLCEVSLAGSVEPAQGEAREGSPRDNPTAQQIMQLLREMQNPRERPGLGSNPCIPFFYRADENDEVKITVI
# B4: E3 ubiquitin-protein ligase TRIM9 (Homo sapiens), Q9C026-5 (parent)
# chain: MEEMEEELKCPVCGSFYREPIILPCSHNLCQACARNILVQTPESESPQSHRAAGSGVSDYDYLDLDKMSLYSEADSGYGSYGGFASAPTTPCQKSPNGVRVFPPAMPPPATHLSPALAPVPRNSCITCPQCHRSLILDDRGLRGFPKNRVLEGVIDRYQQSKAAALKCQLCEKAPKEATVMCEQCDVFYCDPCRLRCHPPRGPLAKHRLVPPAQGRVSRRLSPRKVSTCTDHELENHSMYCVQCKMPVCYQCLEEGKHSSHEVKALGAMWKLHKSQLSQALNGLSDRAKEAKEFLVQLRNMVQQIQENSVEFEACLVAQCDALIDALNRRKAQLLARVNKEHEHKLKVVRDQISHCTVKLRQTTGLMEYCLEVIKENDPSGFLQISDALIRRVHLTEDQWGKGTLTPRMTTDFDLSLDNSPLLQSIHQLDFVQVKASSPVPATPILQLEECCTHNNSATLSWKQPPLSTVPADGYILELDDGNGGQFREVYVGKETMCTVDGLHFNSTYNARVKAFNKTGVSPYSKTLVLQTSEGKALQQYPSERELRGI
# B5: ATP synthase mitochondrial F1 complex assembly factor 2 (Homo sapiens), Q8N5M1 (parent)
# chain: MWRSCLRLRDGGRRLLNRPAGGPSASMSPGPTIPSPARAYAPPTERKRFYQNVSITQGEGGFEINLDHRKLKTPQAKLFTVPSEALAIAVATEWDSQQDTIKYYTMHLTTLCNTSLDNPTQRNKDQLIRAAVKFLDTDTICYRVEEPETLVELQRNEWDPIIEWAEKRYGVEISSSTSIMGPSIPAKTREVLVSHLASYNTWALQGIEFVAAQLKSMVLTLGLIDLRLTVEQAVLLSRLEEEYQIQKWGNIEWAHDYELQELRARTAAGTLFIHLCSESTTVKHKLLKE
# B6: U6 snRNA-associated Sm-like protein LSm7 (Homo sapiens), Q9UK45 (parent)
# chain: MADKEKKKKESILDLSKYIDKTIRVKFQGGREASGILKGFDPLLNLVLDGTIEYMRDPDDQYKLTEDTRQLGLVVCRGTSVVLICPQDGMEAIPNPFIQQQDA
# partner: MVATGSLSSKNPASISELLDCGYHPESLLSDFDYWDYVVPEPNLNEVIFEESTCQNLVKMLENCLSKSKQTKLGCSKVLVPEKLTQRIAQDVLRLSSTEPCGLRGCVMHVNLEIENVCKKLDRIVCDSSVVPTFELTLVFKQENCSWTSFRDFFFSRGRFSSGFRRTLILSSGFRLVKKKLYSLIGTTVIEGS
# B7: Antiviral innate immune response effector IFIT1 (Homo sapiens), P09914 (parent)
# chain: MSTNGDDHQVKDSLEQLRCHFTWELSIDDDEMPDLENRVLDQIEFLDTKYSVGIHNLLAYVKHLKGQNEEALKSLKEAENLMQEEHDNQANVRSLVTWGNFAWMYYHMGRLAEAQTYLDKVENICKKLSNPFRYRMECPEIDCEEGWALLKCGGKNYERAKACFEKVLEVDPENPESSAGYAISAYRLDGFKLATKNHKPFSLLPLRQAVRLNPDNGYIKVLLALKLQDEGQEAEGEKYIEEALANMSSQTYVFRYAAKFYRRKGSVDKALELLKKALQETPTSVLLHHQIGLCYKAQMIQIKEATKGQPRGQNREKLDKMIRSAIFHFESAVEKKPTFEVAHLDLARMYIEAGNHRKAEENFQKLLCMKPVVEETMQDIHFHYGRFQEFQKKSDVNAIIHYLKAIKIEQASLTRDKSINSLKKLVLRKLRRKALDLESLSLLGFVYKLEGNMNEALEYYERALRLAADFENSVRQGP
# partner: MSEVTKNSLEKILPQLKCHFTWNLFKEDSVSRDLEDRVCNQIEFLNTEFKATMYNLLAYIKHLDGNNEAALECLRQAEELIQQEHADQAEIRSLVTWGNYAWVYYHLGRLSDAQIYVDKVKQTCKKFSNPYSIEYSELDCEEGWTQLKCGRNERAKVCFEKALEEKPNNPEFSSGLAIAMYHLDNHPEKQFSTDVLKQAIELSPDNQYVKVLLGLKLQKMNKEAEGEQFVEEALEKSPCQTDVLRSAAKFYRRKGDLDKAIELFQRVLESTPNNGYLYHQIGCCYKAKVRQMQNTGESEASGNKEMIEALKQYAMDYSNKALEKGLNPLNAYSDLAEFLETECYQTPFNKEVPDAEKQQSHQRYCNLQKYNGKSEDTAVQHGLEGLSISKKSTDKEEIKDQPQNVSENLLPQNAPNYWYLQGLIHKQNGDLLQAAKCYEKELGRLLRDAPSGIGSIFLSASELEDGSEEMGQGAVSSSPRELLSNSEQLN
# B8: Protein LDOC1 (Homo sapiens), O95751 (parent)
# chain: MVDELVLLLHALLMRHRALSIENSQLMEQLRLLVCERASLLRQVRPPSCPVPFPETFNGESSRLPEFIVQTASYMLVNENRFCNDAMKVAFLISLLTGEAEEWVVPYIEMDSPILGDYRAFLDEMKQCFGWDDDEDDDDEEEEDDY
# partner: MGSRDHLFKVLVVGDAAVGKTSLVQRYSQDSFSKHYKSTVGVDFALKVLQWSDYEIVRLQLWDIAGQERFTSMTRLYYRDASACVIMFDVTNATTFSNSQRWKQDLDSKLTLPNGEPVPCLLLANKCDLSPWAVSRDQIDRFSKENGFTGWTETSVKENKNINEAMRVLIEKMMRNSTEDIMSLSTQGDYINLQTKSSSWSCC
# Variants of: B1
# Conditions: with ei2ba_human EIF2B1, Q14232
# Sequence of ei2ba_human EIF2B1, Q14232 (Q14232 whole entry): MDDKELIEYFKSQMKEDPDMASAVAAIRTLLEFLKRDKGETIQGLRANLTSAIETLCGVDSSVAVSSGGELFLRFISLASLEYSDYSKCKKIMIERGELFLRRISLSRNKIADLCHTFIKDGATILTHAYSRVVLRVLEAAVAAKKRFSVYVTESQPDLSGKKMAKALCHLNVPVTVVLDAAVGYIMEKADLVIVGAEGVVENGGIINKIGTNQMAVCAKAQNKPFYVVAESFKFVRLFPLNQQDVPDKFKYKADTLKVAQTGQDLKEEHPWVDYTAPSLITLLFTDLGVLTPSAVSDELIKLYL
row,Variant,effect of a mutation on the interaction
1,R167K,with no effect

# Variants of: B2
# Conditions: with zn446_human ZNF446, Q9NWS9
# Sequence of zn446_human ZNF446, Q9NWS9 (Q9NWS9 whole entry): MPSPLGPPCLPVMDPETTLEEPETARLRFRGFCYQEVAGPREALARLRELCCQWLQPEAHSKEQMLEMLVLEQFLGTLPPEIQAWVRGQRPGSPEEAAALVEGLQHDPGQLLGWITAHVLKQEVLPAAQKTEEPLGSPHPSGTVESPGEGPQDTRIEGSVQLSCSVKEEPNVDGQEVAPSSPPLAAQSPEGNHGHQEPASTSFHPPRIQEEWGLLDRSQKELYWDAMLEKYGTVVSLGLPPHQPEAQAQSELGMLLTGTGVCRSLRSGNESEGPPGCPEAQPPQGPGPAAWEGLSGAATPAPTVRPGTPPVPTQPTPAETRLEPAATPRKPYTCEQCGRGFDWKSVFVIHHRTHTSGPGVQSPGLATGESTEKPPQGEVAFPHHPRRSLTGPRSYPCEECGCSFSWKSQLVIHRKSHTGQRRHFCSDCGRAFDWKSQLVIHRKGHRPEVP
row,Variant,effect of a mutation on the interaction
1,T324I,with no effect

# Variants of: B2
# Conditions: with rgs20_human RGS20, O76081
# Sequence of rgs20_human RGS20, O76081 (O76081 whole entry): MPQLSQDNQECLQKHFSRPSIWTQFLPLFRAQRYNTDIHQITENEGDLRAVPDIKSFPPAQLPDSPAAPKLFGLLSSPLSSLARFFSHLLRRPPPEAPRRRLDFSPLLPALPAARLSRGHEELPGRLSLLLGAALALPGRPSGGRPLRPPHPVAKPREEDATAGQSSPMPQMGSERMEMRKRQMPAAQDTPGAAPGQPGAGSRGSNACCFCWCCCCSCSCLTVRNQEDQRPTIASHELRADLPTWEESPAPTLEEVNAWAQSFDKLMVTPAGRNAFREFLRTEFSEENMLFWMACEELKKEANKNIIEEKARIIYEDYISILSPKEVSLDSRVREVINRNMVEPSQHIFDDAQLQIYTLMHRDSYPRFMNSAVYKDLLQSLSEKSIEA
row,Variant,effect of a mutation on the interaction
1,T324I,with no effect

# Variants of: B3
# Conditions: with goga2_human GOLGA2, Q08379
row,Variant,effect of a mutation on the interaction
1,V687I,with no effect

# Variants of: B4
# Conditions: with fbw1a_human BTRC
row,Variant,effect of a mutation on the interaction
1,L277F,with no effect

# Variants of: B5
# Conditions: with tri23_human TRIM23, P36406
# Sequence of tri23_human TRIM23, P36406 (P36406 whole entry): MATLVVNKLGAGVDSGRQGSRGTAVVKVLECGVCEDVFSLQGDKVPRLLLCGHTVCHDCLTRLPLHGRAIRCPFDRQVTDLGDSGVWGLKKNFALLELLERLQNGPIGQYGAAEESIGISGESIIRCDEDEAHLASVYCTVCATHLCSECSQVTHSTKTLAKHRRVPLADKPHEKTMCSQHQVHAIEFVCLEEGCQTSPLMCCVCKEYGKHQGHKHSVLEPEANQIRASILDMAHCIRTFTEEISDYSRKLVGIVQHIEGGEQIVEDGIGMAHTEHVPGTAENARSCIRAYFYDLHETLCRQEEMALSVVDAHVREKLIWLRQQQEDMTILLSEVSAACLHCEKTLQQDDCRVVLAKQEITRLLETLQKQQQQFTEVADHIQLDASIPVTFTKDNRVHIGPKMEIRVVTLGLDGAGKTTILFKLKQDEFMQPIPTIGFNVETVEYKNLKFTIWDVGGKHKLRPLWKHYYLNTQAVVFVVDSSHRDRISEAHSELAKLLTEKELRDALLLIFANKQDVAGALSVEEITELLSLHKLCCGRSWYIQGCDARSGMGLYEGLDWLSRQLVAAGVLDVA
row,Variant,effect of a mutation on the interaction
1,E241G,with no effect

# Variants of: B5
# Conditions: with ews_human EWSR1, Q01844
# Sequence of ews_human EWSR1, Q01844 (Q01844 whole entry): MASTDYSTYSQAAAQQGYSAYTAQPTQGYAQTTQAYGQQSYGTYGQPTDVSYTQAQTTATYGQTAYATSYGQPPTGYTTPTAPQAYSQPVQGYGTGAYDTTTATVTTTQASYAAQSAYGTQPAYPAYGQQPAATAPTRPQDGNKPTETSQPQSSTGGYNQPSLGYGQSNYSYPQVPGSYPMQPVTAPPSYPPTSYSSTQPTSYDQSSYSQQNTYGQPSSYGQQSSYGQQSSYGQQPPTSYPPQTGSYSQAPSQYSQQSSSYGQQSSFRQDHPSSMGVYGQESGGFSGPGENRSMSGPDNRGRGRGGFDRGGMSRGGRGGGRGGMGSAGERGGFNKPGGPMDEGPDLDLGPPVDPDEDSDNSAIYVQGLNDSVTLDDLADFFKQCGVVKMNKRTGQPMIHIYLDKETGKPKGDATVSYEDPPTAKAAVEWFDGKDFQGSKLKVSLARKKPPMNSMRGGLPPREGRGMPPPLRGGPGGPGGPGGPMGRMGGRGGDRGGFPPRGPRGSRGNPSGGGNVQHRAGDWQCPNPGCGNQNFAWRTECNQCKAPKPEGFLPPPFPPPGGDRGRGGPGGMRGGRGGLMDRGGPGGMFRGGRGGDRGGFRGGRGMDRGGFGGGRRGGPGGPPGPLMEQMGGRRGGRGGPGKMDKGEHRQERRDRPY
row,Variant,effect of a mutation on the interaction
1,E241G,with no effect

# Variants of: B6
# Conditions: with ddt4l_human DDIT4L
row,Variant,effect of a mutation on the interaction
1,G78A,with no effect

# Variants of: B7
# Conditions: with ifit3_human IFIT3, O14879
row,Variant,effect of a mutation on the interaction
1,M453T,with no effect
2,A162T,with no effect

# Variants of: B8
# Conditions: with rab7l_human RAB29, O14966
row,Variant,effect of a mutation on the interaction
1,L12H,disrupting interaction strength

# Reference: IntAct's records for PubMed 31515488
